Experimental data published in patent US20250186614A1, “COMPACT DRUG RESPONSIVE DOMAINS FOR REGULATION OF FUNCTION/ABUNDANCE AND DELIVERY OF POLYPEPTIDE PAYLOADS” (OBSIDIAN THERAPEUTICS, INC., priority 2022, published 2025).

B1: FKBP-132: FKBP13 DRD Q72R, Q84E, A117W, G92Y; SEQ ID NO: 82 (protein)
chain: HCPIKSRKGDVLHMHYTGKLEDGTEFDSSLPRNQPFVFSLGTGEVIKGWDQYLLGMCEGEKRKLVIPSELGYGERGWPPKIPGGATLVFEVELLKIER
modifications: Description of sequence: FKBP13-AcGFP-mCherry Fusion; Construct Name: FKBP-132; FKBP13 DRD in Construct : FKBP13 (mutated to match FKBP12 active site Q72R Q84E A117W) (DRD G92Y)
B2: FKBP-140: FKBP13 DRD Q72R, Q84E, A117W, K135Y; SEQ ID NO: 90 (protein)
chain: HCPIKSRKGDVLHMHYTGKLEDGTEFDSSLPRNQPFVFSLGTGEVIKGWDQGLLGMCEGEKRKLVIPSELGYGERGWPPKIPGGATLVFEVELLYIER
modifications: Description of sequence: FKBP13-AcGFP-mCherry Fusion; Construct Name: FKBP-140; FKBP13 DRD in Construct : FKBP13 (mutated to match FKBP12 active site Q72R Q84E A117W) (DRD K135Y)
B3: FKBP-133: FKBP13 DRD Q72R, Q84E, A117W, G83T; SEQ ID NO: 83 (protein)
chain: HCPIKSRKGDVLHMHYTGKLEDGTEFDSSLPRNQPFVFSLGTTEVIKGWDQGLLGMCEGEKRKLVIPSELGYGERGWPPKIPGGATLVFEVELLKIER
modifications: Description of sequence: FKBP13-AcGFP-mCherry Fusion; Construct Name: FKBP-133; FKBP13 DRD in Construct : FKBP13 (mutated to match FKBP12 active site Q72R Q84E A117W) (DRD G83T)
B4: FKBP-138: FKBP13 DRD Q72R, Q84E, A117W, G124R; SEQ ID NO: 88 (protein)
chain: HCPIKSRKGDVLHMHYTGKLEDGTEFDSSLPRNQPFVFSLGTGEVIKGWDQGLLGMCEGEKRKLVIPSELGYGERGWPPKIPGRATLVFEVELLKIER
modifications: Description of sequence: FKBP13-AcGFP-mCherry Fusion; Construct Name: FKBP-138; FKBP13 DRD in Construct : FKBP13 (mutated to match FKBP12 active site Q72R Q84E A117W) (DRD G124R)
B5: FKBP-136: FKBP13 DRD Q72R, Q84E, A117W, S108M; SEQ ID NO: 86 (protein)
chain: HCPIKSRKGDVLHMHYTGKLEDGTEFDSSLPRNQPFVFSLGTGEVIKGWDQGLLGMCEGEKRKLVIPMELGYGERGWPPKIPGGATLVFEVELLKIER
modifications: Description of sequence: FKBP13-AcGFP-mCherry Fusion; Construct Name: FKBP-136; FKBP13 DRD in Construct : FKBP13 (mutated to match FKBP12 active site Q72R Q84E A117W) (DRD S108M)
B6: FKBP-141: FKBP13 DRD Q72R, Q84E, A117R, L52R; SEQ ID NO: 91 (protein)
chain: HCPIKSRKGDVRHMHYTGKLEDGTEFDSSLPRNQPFVFSLGTGEVIKGWDQGLLGMCEGEKRKLVIPSELGYGERGRPPKIPGGATLVFEVELLKIER
modifications: Description of sequence: FKBP13-AcGFP-mCherry Fusion; Construct Name: FKBP-141; FKBP13 DRD in Construct : FKBP13 (mutated to match FKBP12 active site Q72R Q84E A117R (DRD L52R))
B7: FKBP-142: FKBP13 DRD Q72R, Q84E, A117W, T64G; SEQ ID NO: 92 (protein)
chain: HCPIKSRKGDVLHMHYTGKLEDGGEFDSSLPRNQPFVFSLGTGEVIKGWDQGLLGMCEGEKRKLVIPSELGYGERGWPPKIPGGATLVFEVELLKIER
modifications: Description of sequence: FKBP13-AcGFP-mCherry Fusion; Construct Name: FKBP-142; FKBP13 DRD in Construct : FKBP13 (mutated to match FKBP12 active site Q72R Q84E A117W) (DRD T64G)
B8: FKBP-139: FKBP13 DRD Q72R, Q84E, A117W, E130R; SEQ ID NO: 89 (protein)
chain: HCPIKSRKGDVLHMHYTGKLEDGTEFDSSLPRNQPFVFSLGTGEVIKGWDQGLLGMCEGEKRKLVIPSELGYGERGWPPKIPGGATLVFRVELLKIER
modifications: Description of sequence: FKBP13-AcGFP-mCherry Fusion; Construct Name: FKBP-139; FKBP13 DRD in Construct : FKBP13 (mutated to match FKBP12 active site Q72R Q84E A117W) (DRD E130R)
B9: FKBP-137: FKBP13 DRD Q72R, Q84E, A117W, P75L; SEQ ID NO: 87 (protein)
chain: HCPIKSRKGDVLHMHYTGKLEDGTEFDSSLPRNQLFVFSLGTGEVIKGWDQGLLGMCEGEKRKLVIPSELGYGERGWPPKIPGGATLVFEVELLKIER
modifications: Description of sequence: FKBP13-AcGFP-mCherry Fusion; Construct Name: FKBP-137; FKBP13 DRD in Construct : FKBP13 (mutated to match FKBP12 active site Q72R Q84E A117W) (DRD P75L)
B10: FKBP-135: FKBP13 DRD Q72R, Q84E, A117W, E61Y; SEQ ID NO: 85 (protein)
chain: HCPIKSRKGDVLHMHYTGKLYDGTEFDSSLPRNQPFVFSLGTGEVIKGWDQGLLGMCEGEKRKLVIPSELGYGERGWPPKIPGGATLVFEVELLKIER
modifications: Description of sequence: FKBP13-AcGFP-mCherry Fusion; Construct Name: FKBP-135; FKBP13 DRD in Construct : FKBP13 (mutated to match FKBP12 active site Q72R Q84E A117W) (DRD E61Y)
B11: FKBP-134: FKBP13 DRD Q72R, Q84E, A117W, H41R; SEQ ID NO: 84 (protein)
chain: RCPIKSRKGDVLHMHYTGKLEDGTEFDSSLPRNQPFVFSLGTGEVIKGWDQGLLGMCEGEKRKLVIPSELGYGERGWPPKIPGGATLVFEVELLKIER
modifications: Description of sequence: FKBP13-AcGFP-mCherry Fusion; Construct Name: FKBP-134; FKBP13 DRD in Construct : FKBP13 (mutated to match FKBP12 active site Q72R Q84E A117W) (DRD H41R)

What follows are molecules tested on Jurkat cells (assay: Tacrolimus dose response of FKBP13-AcGFP-mCherry constructs stably transduced into Jurkat cells, GFP MFI by flow cytometry). Conditions: tacrolimus, Jurkat cells stably transduced; Table 6.
Format: cell-based
Outline: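 Jurkat E6-1 cells lentivirally transduced with FKBP13-AcGFP-mCherry constructs to 10-25% mCherry+ (day 5) were dosed with tacrolimus. GFP geometric MFI in mCherry+ cells was measured by flow cytometry and fitted to dose-response curves.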

| Molecule | Fold Change |
| --- | --- |
| B1 | 16.27 |
| B2 | 28.70 |
| B3 | 19.11 |
| B4 | 10.43 |
| B5 | 22.46 |
| B6 | 1.00 |
| B7 | 33.42 |
| B8 | 52.24 |
| B9 | 45.79 |
| B10 | 25.52 |
| B11 | 15.64 |
